Results published in article PMC10357528.

Target: SARS-CoV-2 receptor-binding domain, wild-type (SARS-CoV-2) (UniProt P0DTC2)
Assay: AlphaScreen or HTRF

SARS-CoV-2 receptor-binding domain, wild-type (from UniProt P0DTC2 319-541) (domain or fragment)
AlphaLISA signal: 29000 CPS
